Experimental data from publication PMC4335062, “Data-Driven Prediction and Design of bZIP Coiled-Coil Interactions” (PLoS Computational Biology, 2015).
Where “and” joins values, the source holds several entries; their conditions need not be identical. Equal values may be shown once. Where no end group is shown, it is not given here.

B1: ATF5-d1 labeled at the C-terminus (designed binder)
chain: GESKEYKKGSGSKRIAYLRQRIAELRNENHVLESRIQRMEKEKDALQQDRDHLEYELGC(Rhodamine Red C2‑maleimide)
modifications: not fully specified
B2: ATF4-d1 labeled at the C-terminus (designed binder)
chain: GESKEYKKGSGSNQIKTLRTRLSKLRKDNLQLEKDIANLERKAKDLRAEKEQLEYELGC
modifications: also: C59 label by assay: Rhodamine Red C2-maleimide or fluorescein-5-maleimide
notes: solubility linker after the His6 tag; added to the C-terminus for labeling; one molecule for the rhodamine- and the fluorescein-labelled form; the assay tells which label stood there; also called ATF4-d1-Rhodamine; ATF4-d1-FITC; source: E. coli RP3098, purified (Ni-NTA under denaturing conditions, reverse-phase HPLC)

Legend:
ATF4 = target: T1, ATF4 (Homo sapiens, UniProt P18848); test: Competition binding assay, unlabeled design vs FITC-labeled design and TAMRA-labeled ATF4; settings: unlabeled design mixed with FITC-labeled design and TAMRA-labeled ATF4
T1 construct: made in house
T1 sequence (P18848 278-341 limits assumed): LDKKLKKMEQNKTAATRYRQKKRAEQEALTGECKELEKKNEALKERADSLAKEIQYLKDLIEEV
Description: In the competition form of the assay, a FRET pair was made by mixing 10 nM of the donor-labeled peptide with a specified concentration of the acceptor-labeled peptide in 1 mM TCEP-HCl, and 20 μL of this solution was added to the wells after unlabeled design was titrated in 2-fold dilutions over the wells to a final concentration ranging from 0 to 2.5 μM. The amount of acceptor used varied for each curve, taking into account the Kd of the FRET complex in order to obtain a good lower baseline for fitting purposes. Samples were equilibrated for one hour before reading the plates; repeated reading of the plates over several hours gave no change in signal.
For the competition experiments, the IC50 was determined in MATLAB by fitting the binding data to the equation signal=a+b−a/(1+x/c)^H , where a and b are the lower and upper baselines, c is the IC50 value, x is the inhibitor concentration, and the Hill coefficient H was set to 1. Ki values were calculated as in Fu et al..

NFE2 (human) [1] = target: NFE2 (human) (UniProt Q16621); test: FRET or BRET; direct-binding FRET in 384-well plates; rhodamine-labelled design (acceptor) titrated 0 to 1 uM into 10 nM fluorescein-labelled bZIP (donor); 150 mM KCl, 50 mM potassium phosphate pH 7.4, 0.1% Tween-20, 0.1% BSA; 23 °C
Chain of NFE2 (human) (Q16621 whole entry): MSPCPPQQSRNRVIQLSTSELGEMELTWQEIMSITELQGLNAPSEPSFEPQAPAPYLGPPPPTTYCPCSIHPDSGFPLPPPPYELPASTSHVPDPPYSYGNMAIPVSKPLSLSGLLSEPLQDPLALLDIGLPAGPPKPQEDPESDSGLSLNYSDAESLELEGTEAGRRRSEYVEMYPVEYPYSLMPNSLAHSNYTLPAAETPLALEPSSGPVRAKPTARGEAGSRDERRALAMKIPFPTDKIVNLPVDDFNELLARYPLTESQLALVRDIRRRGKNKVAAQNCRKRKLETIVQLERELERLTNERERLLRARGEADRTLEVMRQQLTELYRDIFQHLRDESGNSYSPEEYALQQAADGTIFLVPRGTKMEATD

MAFF (human) = MAFF (human) (UniProt Q9ULX9); test: as above
Chain of MAFF (human) (Q9ULX9 whole entry): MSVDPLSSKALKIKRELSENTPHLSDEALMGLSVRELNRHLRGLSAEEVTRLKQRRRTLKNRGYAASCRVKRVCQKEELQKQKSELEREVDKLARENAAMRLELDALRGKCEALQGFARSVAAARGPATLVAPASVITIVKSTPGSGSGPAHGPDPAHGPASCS

ATF4 (human) [2] = target: ATF4 (human) (UniProt P18848); test: as above
Chain of ATF4 (human) (P18848 whole entry): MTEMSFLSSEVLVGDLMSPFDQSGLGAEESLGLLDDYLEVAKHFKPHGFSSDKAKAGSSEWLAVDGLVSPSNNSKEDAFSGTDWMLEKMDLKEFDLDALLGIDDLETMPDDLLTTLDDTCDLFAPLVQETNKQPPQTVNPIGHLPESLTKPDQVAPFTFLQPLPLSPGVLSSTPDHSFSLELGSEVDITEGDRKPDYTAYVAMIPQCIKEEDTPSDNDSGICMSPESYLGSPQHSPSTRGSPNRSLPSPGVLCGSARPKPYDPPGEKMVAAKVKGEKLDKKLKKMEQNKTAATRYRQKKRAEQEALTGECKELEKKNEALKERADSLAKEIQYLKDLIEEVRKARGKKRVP

BACH2 = BACH2 (Homo sapiens, UniProt Q9BYV9); test: FRET or BRET; direct-binding FRET in 384-well plates; rhodamine-labelled design (acceptor) titrated 0 to 1 uM into 10 nM fluorescein-labelled bZIP (donor); 150 mM KCl, 50 mM potassium phosphate pH 7.4, 0.1% Tween-20, 0.1% BSA; 37 °C
Chain of BACH2 (Q9BYV9 whole entry): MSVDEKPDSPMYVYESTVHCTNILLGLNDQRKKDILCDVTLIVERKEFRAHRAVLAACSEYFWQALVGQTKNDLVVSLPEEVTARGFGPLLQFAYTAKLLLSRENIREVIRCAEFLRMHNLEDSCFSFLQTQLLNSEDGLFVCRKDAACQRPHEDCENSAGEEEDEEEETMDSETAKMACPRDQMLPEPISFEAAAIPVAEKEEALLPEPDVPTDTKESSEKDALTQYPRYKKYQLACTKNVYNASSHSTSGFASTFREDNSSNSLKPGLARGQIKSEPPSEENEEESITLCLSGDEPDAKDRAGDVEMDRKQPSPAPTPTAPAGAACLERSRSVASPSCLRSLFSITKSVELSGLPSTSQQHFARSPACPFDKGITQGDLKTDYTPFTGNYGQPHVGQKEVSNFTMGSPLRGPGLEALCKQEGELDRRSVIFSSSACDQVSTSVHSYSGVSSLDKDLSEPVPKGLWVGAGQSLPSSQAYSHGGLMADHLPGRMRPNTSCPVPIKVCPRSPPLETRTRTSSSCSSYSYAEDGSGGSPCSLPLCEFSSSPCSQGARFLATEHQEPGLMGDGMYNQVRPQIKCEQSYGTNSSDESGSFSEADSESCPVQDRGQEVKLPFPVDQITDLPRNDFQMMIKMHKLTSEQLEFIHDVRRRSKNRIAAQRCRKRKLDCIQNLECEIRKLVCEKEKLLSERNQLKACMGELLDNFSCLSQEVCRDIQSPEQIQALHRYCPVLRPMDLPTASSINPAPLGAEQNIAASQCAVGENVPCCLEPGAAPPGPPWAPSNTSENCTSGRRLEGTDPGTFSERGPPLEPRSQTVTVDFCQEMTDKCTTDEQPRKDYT

BATF3 (human) = BATF3 (human) (UniProt Q9NR55); test: as above
Chain of BATF3 (human) (Q9NR55 whole entry): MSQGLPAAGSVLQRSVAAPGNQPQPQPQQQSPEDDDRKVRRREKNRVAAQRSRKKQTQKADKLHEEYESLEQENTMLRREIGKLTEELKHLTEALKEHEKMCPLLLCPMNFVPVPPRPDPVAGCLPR

NFE2 (human) [3] = target: NFE2 (human) (UniProt Q16621); test: as above
NFE2L1 [4] = target: T2, NFE2L1 (Homo sapiens, UniProt Q14494); test: as above
T2 sequence (Q14494 whole entry): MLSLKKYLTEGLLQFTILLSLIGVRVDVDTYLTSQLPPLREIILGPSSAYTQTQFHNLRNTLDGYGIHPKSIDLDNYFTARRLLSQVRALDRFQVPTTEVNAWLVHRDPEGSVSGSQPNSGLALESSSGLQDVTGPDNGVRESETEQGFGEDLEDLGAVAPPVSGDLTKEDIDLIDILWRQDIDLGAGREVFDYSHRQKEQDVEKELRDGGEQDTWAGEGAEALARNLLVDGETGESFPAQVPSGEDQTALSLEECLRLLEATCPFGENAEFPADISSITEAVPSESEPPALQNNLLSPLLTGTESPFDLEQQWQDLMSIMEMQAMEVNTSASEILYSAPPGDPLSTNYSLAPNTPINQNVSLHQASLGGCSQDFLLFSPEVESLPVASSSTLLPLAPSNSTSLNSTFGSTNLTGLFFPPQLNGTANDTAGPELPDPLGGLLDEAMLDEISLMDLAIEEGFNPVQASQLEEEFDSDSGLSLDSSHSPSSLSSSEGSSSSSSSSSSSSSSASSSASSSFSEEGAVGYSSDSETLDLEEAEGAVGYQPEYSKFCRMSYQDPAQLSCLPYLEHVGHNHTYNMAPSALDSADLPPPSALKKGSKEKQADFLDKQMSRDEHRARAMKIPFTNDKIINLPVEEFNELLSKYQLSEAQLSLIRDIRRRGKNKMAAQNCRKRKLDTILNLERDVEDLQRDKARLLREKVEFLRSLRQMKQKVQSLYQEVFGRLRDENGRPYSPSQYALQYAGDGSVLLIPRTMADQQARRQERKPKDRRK

ATF4 (human) [5] = target: ATF4 (human) (UniProt P18848); test: as above
ATF2 (human) [6] = target: ATF2 (human) (UniProt P15336); test: FRET or BRET; direct-binding FRET in 384-well plates; rhodamine-labelled design (acceptor) titrated 0 to 1 uM into 10 nM fluorescein-labelled bZIP (donor); 150 mM KCl, 50 mM potassium phosphate pH 7.4, 0.1% Tween-20, 0.1% BSA; 4 °C
Chain of ATF2 (human) (P15336 whole entry): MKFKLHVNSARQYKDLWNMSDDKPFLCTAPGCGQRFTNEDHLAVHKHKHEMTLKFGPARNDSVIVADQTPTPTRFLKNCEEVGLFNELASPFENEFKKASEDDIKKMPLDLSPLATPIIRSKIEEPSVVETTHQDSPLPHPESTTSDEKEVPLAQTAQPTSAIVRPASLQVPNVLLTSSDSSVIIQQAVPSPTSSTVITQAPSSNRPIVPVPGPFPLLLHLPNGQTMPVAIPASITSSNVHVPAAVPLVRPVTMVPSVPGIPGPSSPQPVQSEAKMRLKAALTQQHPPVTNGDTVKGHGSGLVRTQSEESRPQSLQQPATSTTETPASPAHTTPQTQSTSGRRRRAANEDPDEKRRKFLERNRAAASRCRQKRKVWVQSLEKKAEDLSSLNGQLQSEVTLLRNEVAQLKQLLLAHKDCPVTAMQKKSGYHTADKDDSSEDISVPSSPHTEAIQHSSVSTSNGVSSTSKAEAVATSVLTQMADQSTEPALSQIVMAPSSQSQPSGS

NFE2L1 [7] = target: T2, NFE2L1; test: as above
ATF5 (human) = ATF5 (human) (UniProt Q9Y2D1); test: as above
Chain of ATF5 (human) (Q9Y2D1 whole entry): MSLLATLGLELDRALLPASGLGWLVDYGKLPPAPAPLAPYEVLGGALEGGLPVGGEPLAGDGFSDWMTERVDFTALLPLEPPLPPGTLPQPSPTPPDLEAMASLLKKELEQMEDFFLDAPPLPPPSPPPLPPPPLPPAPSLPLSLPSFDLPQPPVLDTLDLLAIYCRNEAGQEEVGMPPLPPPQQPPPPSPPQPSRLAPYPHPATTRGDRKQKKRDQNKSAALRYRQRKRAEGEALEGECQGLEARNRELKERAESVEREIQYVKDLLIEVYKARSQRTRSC

ATF4 (human) [8] = target: ATF4 (human) (UniProt P18848); test: as above
[9] = target: the molecule itself; test: FRET or BRET; direct-binding FRET of the designed peptide with itself (row 'homodimer'; dimer to monomers); acceptor-labelled design titrated into donor-labelled design by note 1 of the tables; 4 °C
ATF2 (human) [10] = target: ATF2 (human) (UniProt P15336); test: FRET or BRET; direct-binding FRET in 384-well plates; rhodamine-labelled design (acceptor) titrated 0 to 1 uM into 10 nM fluorescein-labelled bZIP (donor); 150 mM KCl, 50 mM potassium phosphate pH 7.4, 0.1% Tween-20, 0.1% BSA; 37 °C
CREB1 (human) = CREB1 (human) (UniProt P16220); test: as above
Chain of CREB1 (human) (P16220 whole entry): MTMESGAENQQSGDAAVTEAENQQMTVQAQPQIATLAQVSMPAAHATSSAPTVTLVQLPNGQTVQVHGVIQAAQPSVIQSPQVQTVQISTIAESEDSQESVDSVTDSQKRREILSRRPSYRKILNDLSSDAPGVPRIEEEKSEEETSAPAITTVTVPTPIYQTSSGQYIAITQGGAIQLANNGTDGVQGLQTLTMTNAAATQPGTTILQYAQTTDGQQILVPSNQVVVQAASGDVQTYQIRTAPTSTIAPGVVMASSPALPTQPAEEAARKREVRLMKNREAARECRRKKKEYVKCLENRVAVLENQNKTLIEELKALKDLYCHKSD

Molecule	Ki (ATF4) [nM]	Kd (NFE2 (human) [1]) [nM]	Kd (MAFF (human)) [nM]	Kd (ATF4 (human) [2]) [nM]	Kd (BACH2) [nM]	Kd (BATF3 (human)) [nM]	Kd (NFE2 (human) [3]) [nM]	Kd (NFE2L1 [4]) [nM]	Kd (ATF4 (human) [5])	Kd (ATF2 (human) [6]) [nM]	Kd (NFE2L1 [7]) [nM]	Kd (ATF5 (human))	Kd (ATF4 (human) [8]) [nM]	Kd [9] [nM]	Kd (ATF2 (human) [10]) [nM]	Kd (CREB1 (human)) [nM]
NQIKTLRTRLSKLRKDNLQLEKDIANLERKAKDLRAEKEQLEYEL [ATF4-d1]	48	–	–	–	–	–	–	–	–	–	–	–	–	–	–	–
KRIAYLRQRIAELRNENHVLESRIQRMEKEKDALQQDRDHLEYEL [ATF5-d1]	6	–	–	–	–	–	–	–	–	–	–	–	–	–	–	–
B1	–	> 5000	> 5000	1	> 5000	> 5000	> 5000	> 5000	4.8 nM and 4 nM and 6 nM	> 5000	> 5000	1.1 nM and 1.2 nM and 1 nM	1	–	–	–
B2	–	> 5000	623	1	–	–	2920	–	11.3 nM and 9.9 nM and 6.8 nM	1000	> 5000	> 5000 nM	1	1	> 5000	> 5000
